Data reported in patent CN116063501A (HUADAO SHANGHAI BIOMEDICAL CO LTD, dated 2023).

Target: T1, CD4抗原 (UniProt P01730 26-458, limits assumed)
T1 construct: whole, on cells; also called 细胞表面的CD4抗原
Test: flow cytometry on Nalm6-CD4 cells; antibody from 4 μg/mL in 4-fold steps, 10 concentrations; APC goat anti-mouse IgG secondary

- EC50: 0.101 µg/mL
B1: 抗CD4-1抗体 (antibody, V domains shown)
VH: EVQLQQSGPELVKPGDSVKMSCKASGYTFTDYFMDWVKQSHGKSLEWIGYIYPNNGGTNNNQKFKGKATLTVDKSSSTAYMELHSLTSEDSAVYYCARRGYDEGFAYWGQGTLVTVSS
VL: DILLTQSPAILSVSPGERVSFSCRASQIIGTSILWYQQRTNGSPRLLIKYASESISGIPSRFSGSGSGTDFTLSINSVESEDIADYYCQQSNTWPFTFGGGTKLEMK
notes: Detected with a goat anti-mouse IgG secondary antibody; also called 抗CD4抗体; 抗CD4(CD4-1)抗体
